In patent US20090028881A1:

Tests used:
[1] = target: CCR5 mutant E172A (human) (UniProt P51681); experiment: alanine scanning epitope mapping; wild-type CCR5 defined as 100%
[2] = target: CCR5 mutant K171A (human) (UniProt P51681); experiment: as above

B1: <CCR5>Pz03.1C5 (antibody, V domains shown)
VH: QVQLKQSGPGLVRPSQSLSITCTVSGFPLGIFGVHWVRQSPGKGLEWLGVIWKGGNTDYNAAFMSRLRITKDNSKSQVFFRMNSLQTDDTAIYYCAKVNLADAMDYWGQGTSVIVSS
VL: DIQMTQSPASLSASVGETVTITCRASGNIHGYLAWFQQKQGKSPQLLVYNTKTLAEGVPSRFSGSGSGTQFSLKINSLQPEDFGNYYCQHHYDLPRTFGGGTKLEIKR
epitope binding (% of wild-type CCR5) [1]: 20%
epitope binding (% of wild-type CCR5) [2]: 20%
